The target of experiment [1] is SD1-RBD of SARS-CoV-2 S, Alpha (SARS-CoV-2, Alpha (B.1.1.7), strain). As to the kind of experiment: ELISA. Conditions: both partners purified. In general terms: ELISA stands for enzyme-linked immunosorbent assay.
Experiment [2] has as its target SD1-RBD of SARS-CoV-2 S, Beta (SARS-CoV-2, Beta (B.1.351), strain). As to the kind of experiment: ELISA. The following applies: both partners purified.
The target of experiment [3] is SD1-RBD of SARS-CoV-2 S, Gamma (SARS-CoV-2, Gamma (B.1.1.28.1), strain). As to the kind of experiment: ELISA. The following applies: both partners purified.
Experiment [4] has as its target SD1-RBD of SARS-CoV-2 S, Delta (SARS-CoV-2, Delta (B.1.617.2), strain). As to the kind of experiment: ELISA. Conditions: both partners purified.
The target of experiment [5] is SD1-RBD of SARS-CoV-2 S, Omicron BA.1 (SARS-CoV-2, Omicron BA.1 (B.1.1.529), strain). The experiment is described as follows: ELISA. Conditions: both partners purified.
For experiment [6], the target named is SD1-RBD of SARS-CoV-2 S, Omicron BA.2 (SARS-CoV-2, Omicron BA.2, strain). The experiment is described as follows: ELISA. Conditions: both partners purified.
Experiment [7] deals with SD1-RBD of SARS-CoV-2 S, Omicron BA.2.75 (SARS-CoV-2 Omicron BA.2.75 (GenBank …, strain)). As to the kind of experiment: ELISA. Conditions: both partners purified.
The target of experiment [8] is SD1-RBD of SARS-CoV-2 S, Omicron BA.4/BA.5 (SARS-CoV-2 Omicron BA.4/BA.5 (GenBank …, strain)). The experiment is described as follows: ELISA. Conditions: both partners purified.
Experiment [9] addresses SARS-CoV-2 S-2P ectodomain trimer (ancestral) (SARS-CoV-2 (ancestral, MN908947), stabilised). As to the kind of experiment: SPR. The following applies: both partners purified.
The target in experiment [10] is SARS-CoV-2 S Omicron BA.1, C-terminally truncated, expressed on 293T cells (SARS-CoV-2, Omicron BA.1 (B.1.1.529), strain). The experiment is described as follows: flow cytometry on cells. Conditions: one partner purified. In general terms: Flow cytometry measures light scatter and fluorescence of single cells or particles in a stream.
For experiment [11], the target named is SARS-CoV-2 S Omicron BA.4/BA.5, C-terminally truncated, expressed on 293T cells (SARS-CoV-2, Omicron BA.4/BA.5, strain). The experiment is described as follows: flow cytometry on cells. Conditions: one partner purified.

B1: sd1.040 monoclonal antibody (IgG) (antibody, V domains shown)
VH: QVQLVQSGAEVKKPGASVKVSCKASGYTFTSFYIHWVRQAPGQGLEWMGIIDPSGGSTSYPQKFQGRVTMTRDTSTSTVYMDLSSLRSEDTAVYYCTRDGSAGDNSWFDPWGQGTLVTVSS
VL: not shown
Take B1: the binding result in experiment [1], in experiment [2], in experiment [3], in [4], in experiment [5] and in [6] was “binds” each time. In addition, the binding result in experiment [7] and in [8] was “binds” throughout.

B2: sd1.040 Fab (Fab, V domains shown)
VH: QVQLVQSGAEVKKPGASVKVSCKASGYTFTSFYIHWVRQAPGQGLEWMGIIDPSGGSTSYPQKFQGRVTMTRDTSTSTVYMDLSSLRSEDTAVYYCTRDGSAGDNSWFDPWGQGTLVTVSS
VL: not shown
In general, Kd refers to the concentration at which binding is half-saturated. A high value points to a looser complex. B2 registered a Kd in experiment [9] of 0.2 nM.

B3: hr2.016 monoclonal antibody (IgG) (antibody, V domains shown)
VH: EVQLLESGGGLVQPGGSLRLSCAASGFMFSKYAMTWVRQTPGKGLEWVSVISGGGGSTYYADSVKGRFTISRDNSKNTLYLQMNSLRAEDTAVYYCAKLLVVFVIDYWGQGALVTVSS
VL: EIVLTQSPGTLSLSPGERATLFCRASQSVSSNLAWYQQKPGRAPRLLISGASSRATGIPDRFSGSGSGTDFTLTISRLEPEDFAVYYCQQYGSSPPTFGQGTKVEIK
B3: the “fold increase of binding (gMFI) with soluble ACE2” value (from here on “fold increase of binding (gMFI)”) turned out to be 4.9 fold in [10] and 4.6 fold in [11].

B4: fp.006 monoclonal antibody (IgG) (antibody, V domains shown)
VH: EVQLVESGGGVVQPGGSLRLSCAASGFNFNNYALHWVRQAPGKGLEWVAIISYEARNKKYGVSVMGRFSISRDNSKSIMYLEMNSLRVEDTGVYYCARDLFLSDYDRSGYDPTRGGFDHWGQGTLVTVSS
VL: EIVMTQSPATLSVSPGERATLSCRASQSVSSSLAWYQHRFGQAPRLLISGASTRATGIPGRFSGSGSGTEFTLTISSLQSEDVAVYYCQQYGDWPLVTFGGGTKVEIK
Consider B4, for which the figures for the “fold increase of binding (gMFI)” value in experiment [10] and in experiment [11] were 5.3 fold and 8.2 fold, respectively.

B5: hr2.023 monoclonal antibody (IgG) (antibody, V domains shown)
VH: QVQLVQSGAEVKKPGASVKVSCRASENIFSDSYLHWVRQAPGQGLEWMGIITPSGDKTFYAQQFQGRLTMTRDTPTNTLHMDLRGLTSADTAIYYCARQATKGGWDYWGQGTLVTVSS
VL: EIVLTQSPGTLSLSPGESATLSCRASQSVTRNYLAWYQQQPGQAPRLLIYGASNRATGVPDRFSGSGSGTDFTLTISRLEPEDFAVYYCQQYGSSPPTFIFGPGTKVDIK
Regarding B5, the “fold increase of binding (gMFI)” value was 5.8 fold in experiment [10] and 5.3 fold in experiment [11].

For the origin of these results see article PMC9972897 (Science immunology, 2023).
